T1: Fc-CLEC1 labelled with Alexa Fluor 488 (human, Alexa Fluor 488 label (sites not given))
T1 construct: also called Fc-CLEC1-A488; Alexa488-Fc-Clec-1
T1 chain: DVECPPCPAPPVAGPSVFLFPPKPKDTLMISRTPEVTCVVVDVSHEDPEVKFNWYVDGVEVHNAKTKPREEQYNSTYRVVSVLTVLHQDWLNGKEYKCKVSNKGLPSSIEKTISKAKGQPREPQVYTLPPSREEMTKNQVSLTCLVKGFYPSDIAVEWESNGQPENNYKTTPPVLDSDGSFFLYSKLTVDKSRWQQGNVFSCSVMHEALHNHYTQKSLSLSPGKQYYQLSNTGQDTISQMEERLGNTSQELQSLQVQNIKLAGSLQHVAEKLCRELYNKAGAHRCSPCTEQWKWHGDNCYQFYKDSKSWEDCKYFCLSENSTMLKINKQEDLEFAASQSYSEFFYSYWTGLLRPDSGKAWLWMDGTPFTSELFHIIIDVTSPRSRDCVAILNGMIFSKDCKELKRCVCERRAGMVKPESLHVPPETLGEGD

T2: recombinant human CLEC-1 protein with His Tag (#1704-CL R&D Systems) (human, UniProt Q8NC01 74-280)
T2 construct: Bought protein; also called His-CLEC1; His Clec-1; not shown: His tag
T2 sequence: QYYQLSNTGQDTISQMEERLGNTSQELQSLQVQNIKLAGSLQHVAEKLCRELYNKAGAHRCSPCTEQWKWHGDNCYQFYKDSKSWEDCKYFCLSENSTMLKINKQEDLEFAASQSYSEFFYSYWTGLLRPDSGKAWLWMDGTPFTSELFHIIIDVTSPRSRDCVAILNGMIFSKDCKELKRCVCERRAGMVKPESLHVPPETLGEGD

T3: human CLEC-1A expressed on the cell membrane (human, UniProt Q8NC01 1-280)
T3 construct: Endogenous on human U266 myeloma cells, on monocyte-derived TGFb-DC and macrophages; on CHO cells after transduction with a Clec-1 expressing lentivirus; also called U266 CLEC1; CLEC-1A on U266 cells
T3 sequence: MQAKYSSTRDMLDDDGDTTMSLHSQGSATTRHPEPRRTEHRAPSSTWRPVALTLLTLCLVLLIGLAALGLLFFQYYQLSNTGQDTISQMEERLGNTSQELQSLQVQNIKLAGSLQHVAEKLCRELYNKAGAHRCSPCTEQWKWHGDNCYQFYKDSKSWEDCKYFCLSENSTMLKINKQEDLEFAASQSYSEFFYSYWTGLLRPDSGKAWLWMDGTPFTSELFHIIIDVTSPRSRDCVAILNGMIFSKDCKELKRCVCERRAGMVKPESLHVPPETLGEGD

B1: murine anti-hCLEC1 antibody 6C5-A4 (antibody, V domains shown)
VH: QVQLQQSGPELVKPGASVKMSCKASGYTFTDYVISWVKQKTGQGLEWIGEIYPGSGNTYYNEKFKGKATLTADKSSSTAYIHLSSLTSEDSAVYFCAGGGSSHFDYWGQGTTLTVSS
VL: not shown
notes: Mouse hybridoma antibody
B2: murine anti-hCLEC1 antibody 15E3-G3 (antibody, V domains shown)
VH: QVQLQQSGPELVKPGASVKMSCKASGFTFTDYVIAWVKVRTGQGLEWIGEIYPGSGSIYYNEKFKGKATLTADKSSNTAYMQLSSLTSEDSAVYFCASSTVVAFDYWGQGTTLTVSS
VL: EIVLTQSPTTLAASPGEKIIITCSDSSSISSNYLHWYQQKPGFSPKLLIYGTSNLASGVPARFSGSGSGTTYSLTIGTMEAEDVATYYCQQGSSIPRTFGGGTKLEIK
notes: Mouse hybridoma antibody
B3: murine anti-hCLEC1 antibody 14H9-F3 (antibody, V domains shown)
VH: QVQLKESGPGLVAPSQSLSITCTISGFSLTTYGIHWVRQPPGKGLEWLVVIWSDGSTIYNSALKSRLSISKDNSKSQVFLKMNSLQTDDTAIYYCARHGGYYNYFDYWGQGTTLTVSS
VL: DIQMNQSPSSLSASLGDTITITCHASQNINVWLSWYQQKPGNIPKLLIYKASNLHTGVPSRFSGSGSGTTFTLTIDSLQPEDIATYYCQQGQSYWTFGGGTKLEIK
notes: Mouse hybridoma antibody
B4: murine anti-hCLEC1 antibody 21B1-E10 (antibody, V domains shown)
VH: QVQLKESGPGLVAPSQSLSITCTISGFSLTTYGIHWVRQPPGKGLEWLVVIWSDGSTIYNSALKSRLSISKDNSKSQVFLKMNSLQTDDTAIYYCARHGGYYNYFDYWGQGTTLTVSS
VL: DIVMSQSPSSLAVSVGEKVTLTCKSTQNLFYSTNQKNYLAWYQQKPGQSPKLLIYWASTRESGVPDRFTGSGSGTDFTLTISSVKAEDPAVYYCQQYYTYPWTFGGGTKLEIK
notes: tied to the 21B1 variable domains by name
B5: murine anti-hCLEC1 antibody 5D1-A5 (antibody, V domains shown)
VH: QVQLKESGPGLVAPSQSLSITCTISGFSLTSYGVHWVRQPPGKGLEWLVVIWSDGSTIYNSALKSRLSISKDNSKSQVFLKMNSLQTDDTAMYYCARHGGYYNYFDYWGQGTTLTVSS
VL: DIQMNQSPSSLSASLGDTITITCHASQNINVWLSWYQQKPGNIPKLLIYKASNLHTGVPSRFSGSGSGTGFTLTISSLQPEDIATYYCQQGQSYWTFGGGTKLEIK
notes: Mouse hybridoma antibody
B6: murine anti-hCLEC1 antibody 11H11-G11 (antibody, V domains shown)
VH: QIHLVQSGPELKKPGETVKISCKASGYTFTNFGMNWVKQAPGKGLKWMGWINTNTGEPTYADDFKGRFAFSLETSASTAYLQINNLKNEDTATYFCARGAPAWFTYWGQGTLVTVSA
VL: DIQMTQSPASLSASVGETVTITCRATENIYSYLAWYQQKQGKSPQFLVYNAKTLAEGMPSRFSGSGSGTQFSLKINILQPEDFGTYYCQHHFGTPLTFGAGTKLELK
notes: Mouse hybridoma antibody
B7: murine anti-hCLEC1 antibody 10F4-H2 (antibody, V domains shown)
VH: QVQLQQSGTELARPGASVKMSCKASGYIFTDYTIHWVKQRPGQGLEWVGYINPSSGYTNYNQKFKAKATLTADKSSSTAYMQLSSLTSEDSAVYYCTPMFRRSYFDYWGQGTTLTVSS
VL: DAVMTQTPLSLPVSLGDQASISCRSSQSLENSNGNTYLNWYLQKPGQSPQLLIYRVSNRFSGVLDRFSGSGSGTDFTLKISRVEAEDLGVYFCLQVTHVPYTFGGGTKLEIK
notes: Mouse hybridoma antibody

Experiments:
[1] = target: T1, Fc-CLEC1 labelled with Alexa Fluor 488; test: FACS competition: blocks Fc-CLEC1-A488 (10 nM) binding to CLEC-1 ligand on permeabilised Raji cells; read-out % + cells
Experimental: (§1) Methods. To measure competition on permeabilised Raji (CytoFix/cytoperm kit, BD Biosciences) which expressed CLEC1 ligand, Fc-CLEC1-labelled A488 which bound specifically to permeabilised Raji was used. To measure competition, Fc-CLEC1 labelled A488 at 10 nM or 20 nM was mixed with mouse anti-hCLEC1 at different concentrations for 15 min at RT then added on these cells for 30 min at 4° C. […] To measure competition on PMBC, we used human PBMC pre-treated by UV for 18 h to obtain apoptotic PBMC, which expressed CLEC1 ligand. Fc-CLEC1-labelled A488 bound specifically apoptotic UV-treated PBMC. To measure competition, Fc-CLEC1 labelled A488 at 10 nM was mixed with mouse anti-hCLEC1 at different concentrations for 15 min at RT then added on these cells for 30 min at 4° C.

[2] = target: T1, Fc-CLEC1 labelled with Alexa Fluor 488; test: FACS competition: blocks Fc-CLEC1-A488 (10 nM) binding to CLEC-1 ligand on permeabilised Raji cells; read-out Mean
Experimental: as §1

[3] = target: T1, Fc-CLEC1 labelled with Alexa Fluor 488; test: FACS competition: blocks Fc-CLEC1-A488 (20 nM) binding to CLEC-1 ligand on permeabilised Raji cells; read-out % + cells
Experimental: as §1

[4] = target: T2, recombinant human CLEC-1 protein with …; test: Blitz biolayer interferometry, His-CLEC1 on Ni-NTA biosensor, antibody at 20 ug/mL
Experimental: (§2) Analysis was performed with a BLItz System (Fortébio, #C22-2 No 61010-1, Molecular Devices, San José, USA).
(§3) The affinity of the anti-hCLEC1 antibodies, was measured with Blitz system (Forté Bio, C22-2 No 61010-1).

[5] = target: T3, human CLEC-1A expressed on the cell …; test: flow cytometry on U266 cells; printed as ED50, read-out % + cells
[6] = target: T1, Fc-CLEC1 labelled with Alexa Fluor 488; test: FACS competition: blocks Fc-CLEC1-A488 (20 nM) binding to CLEC-1 ligand on permeabilised Raji cells; read-out Mean
Experimental: as §1

[7] = target: T1, Fc-CLEC1 labelled with Alexa Fluor 488; test: FACS competition: blocks Fc-CLEC1-A488 (10 nM) binding to CLEC-1 ligand on UV-treated PBMC; read-out % + cells
Experimental: as §1

[8] = target: T3, human CLEC-1A expressed on the cell …; test: flow cytometry on U266 cells; printed as ED50, read-out Mean
[9] = target: T1, Fc-CLEC1 labelled with Alexa Fluor 488; test: FACS competition: blocks Fc-CLEC1-A488 (10 nM) binding to CLEC-1 ligand on UV-treated PBMC; read-out Mean
Experimental: as §1

[10] = target: T2, recombinant human CLEC-1 protein with …; test: ELISA on immobilised human His-CLEC1 (column hm His Clec); given as ED50
Experimental: Method: The binding activity of the anti-hCLEC1 antibodies was assessed by ELISA (Enzyme-linked immunosorbent assay). […] A second ELISA assays was performed, like above, with immobilization of CLEC1-Fc (OSE Immunotherapeutics) at 2 μg/ml. A third ELISA assays was performed to see the cross-reactivity with mouse CLEC1. Like above, ELISA was made with immobilization of mouse Fc-CLEC1 (OSE Immunotherapeutics) at 2 μg/ml in carbonate buffer instead of His-Clec. Purified antibodies were added at different concentrations to measure binding. […] Control antibody is a commercial anti-CLEC-1A antibody.

[11] = target: T2, recombinant human CLEC-1 protein with …; test: BLI (Blitz), CLEC1-His on Ni-NTA biosensor, antibody at 20 ug/mL; murine clone, FIG. 16
Experimental: as §2, §3

| Binder | IC50 [1] [µg/mL] | IC50 [2] [µg/mL] | IC50 [3] [µg/mL] | Kd [4] [nM] | koff [4] [s⁻¹] | kon [4] [M⁻¹ s⁻¹] | EC50 [5] [µg/mL] | IC50 [6] [µg/mL] | IC50 [7] [µg/mL] | EC50 [8] [µg/mL] | IC50 [9] [µg/mL] | EC50 [10] [µg/mL] | Kd [11] [nM] |
| --- | --- | --- | --- | --- | --- | --- | --- | --- | --- | --- | --- | --- | --- |
| B1 | 19 | 1.7 | 1.5 | 14.7 | 0.000934 | 63400 | 0.051 | 1.7 | 2 | 0.17 | 2.2 | 0.012 |  |
| B2 | 7.7 | 1.3 | 14 | 14 | 0.00101 | 72200 | 0.074 | 3 | 0.69 | 0.59 | 4.5 | 0.0466 |  |
| B3 | 3.2 | 0.84 | 22 | 8.24 | 0.00074 | 89800 | 0.0065 | 2.5 | 0.031 | 0.072 | 3.1 | 0.157 |  |
| B4 |  |  |  |  |  |  |  |  |  |  |  |  | ~1 |
| B5 | 12 | 4.4 | 0.21 | 16.1 | 0.00124 | 76600 | 0.0064 | 3.1 | 0.13 | 0.12 | 3.8 | 1.31 |  |
| B6 | 8 | 1.5 | 0.7 | 2.91 | 0.000787 | 270000 | 0.0077 | 0.72 | 0.36 | 0.033 | 2.7 | 0.00748 | ~1 |
| B7 | 11 | 2.1 | 0.82 | 5.72 | 0.000621 | 109000 | 0.034 | 2.5 | 0.79 | 0.22 | 2.8 | 0.0128 |  |

— patent publication US20230331852A1 (OSE IMMUNOTHERAPEUTICS, published 2023)
